Values quoted from earlier work, collected in patent US11884941B2, “Non-canonical lipoproteins with programmable assembly and architecture and method of making non-canonical lipoproteins” (SYRACUSE UNIVERSITY, priority 2020, dated 2024).
Read-outs that look alike come from different tables or passages of the source.

How the values were obtained:
yeast NMT = biological target: T1, yeast NMT (Saccharomyces cerevisiae, UniProt P14743)
T1 sequence (P14743 1-455): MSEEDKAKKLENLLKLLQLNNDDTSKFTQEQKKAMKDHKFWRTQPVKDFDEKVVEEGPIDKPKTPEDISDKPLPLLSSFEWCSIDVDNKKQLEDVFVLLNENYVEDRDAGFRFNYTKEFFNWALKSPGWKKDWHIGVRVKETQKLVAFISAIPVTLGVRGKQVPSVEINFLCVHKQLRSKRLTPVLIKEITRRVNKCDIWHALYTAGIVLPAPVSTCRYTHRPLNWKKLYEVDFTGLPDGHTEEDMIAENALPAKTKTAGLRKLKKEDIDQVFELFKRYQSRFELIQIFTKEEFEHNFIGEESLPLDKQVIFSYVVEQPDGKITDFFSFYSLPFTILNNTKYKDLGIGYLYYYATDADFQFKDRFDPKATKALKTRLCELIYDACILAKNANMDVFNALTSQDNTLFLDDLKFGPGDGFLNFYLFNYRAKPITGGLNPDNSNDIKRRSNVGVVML

[1] = test system: Pseudomonas acyl-CoA synthetase; conditions: in vitro

Question: What does the source list for “GARASVLS [octapeptide NMT substrate derived from Pr55gag polypeptide precursor of human immunodeficiency virus I (Devadas et al.)]”?
Answer: fold reduction of peptide affinity toward NMT:ADA-CoA complex compared to natural substrate (M-CoA) (yeast NMT): 7 fold; Km (yeast NMT; NMT with ADA-CoA bound, read-out: Km for the peptide, NMT:ADA-CoA): 66 µM; Km (yeast NMT; NMT with Myr-CoA bound, read-out: Km for the peptide, NMT:Myr-CoA complex): 9 µM

Question: For GLYASKLFSNL (substrate for transferase), which Km (yeast NMT; read-out: Km of recognition sequence for yeast NMT) is on record?
Answer: The Km was roughly 0.08 µM.

Question: Which “amount of acyl-CoA produced compared to M-CoA” value [1] does the source give for CC(C)(COP(=O)(O)OP(=O)(O)OCC1OC(n2cnc3c(N)ncnc32)C(O)C1OP(=O)(O)O)C(O)C(=O)NCCC(=O)NCCSC(=O)CCCCCCCCCCCN=[N+]=[N-] (stereo not drawn) [ADA-CoA] here?
Answer: Its value is 1.5-2 times.

Question: Which “Vm relative to Vm (M)” value (yeast NMT; transfer to N-terminal glycine in ternary complex) does the source give for [N-]=[N+]=NCCCCCCCCCCCC(=O)O [ADA, 12-azidododecanoic acid] here?
Answer: The value was 1.5 ×Vm (M).
